By Kd is commonly meant the equilibrium constant for the complex coming apart.

Some results are limits rather than exact numbers.

The test system of data set [1] is His-CPA (C-terminus of RNA polymerase subunit PA) (Influenza A). As to the kind of experiment: BLI. The following applies: all A are 7-phenylbutyl-7-deaza-dA (A*); 25 mM HEPES, 5 mM MgCl2, 300 mM KCl, pH 7.4 (BLI) or 7.5 (SELEX), 24 °C; plate assay washes with 1% BSA, 0.05% Tween …; aptamers folded 95 °C 5 min then cooled.
In data set [2] the target is His-Hsp70 (Heat Shock Protein 70) (UniProt P0DMV8). As to the kind of experiment: BLI. The following applies: 25 mM HEPES, 5 mM MgCl2, 300 mM KCl, pH 7.4 (BLI) or 7.5 (SELEX), 24 °C, plate assay washes with 1% BSA.
Data set [3] concerns His-NPA (N-terminus of RNA polymerase subunit PA) (Influenza A). As to the kind of experiment: BLI. The following applies: all A are 7-phenylbutyl-7-deaza-dA (A*); 25 mM HEPES, 5 mM MgCl2, 300 mM KCl, pH 7.4 (BLI) or 7.5 (SELEX), 24 °C; plate assay washes with 1% BSA, 0.05% Tween …; aptamers folded 95 °C 5 min then cooled.
The subject of data set [4] is His-SUMO. As to the kind of experiment: BLI. The following applies: all A are 7-phenylbutyl-7-deaza-dA (A*); 25 mM HEPES, 5 mM MgCl2, 300 mM KCl, pH 7.4 (BLI) or 7.5 (SELEX), 24 °C; plate assay washes with 1% BSA, 0.05% Tween …; aptamers folded 95 °C 5 min then cooled.
For data set [5], the target named is SBP-Hsp70 (UniProt P0DMV8). The data set can be described thus: BLI. The following applies: all A are 7-phenylbutyl-7-deaza-dA (A*); 25 mM HEPES, 5 mM MgCl2, 300 mM KCl, pH 7.4 (BLI) or 7.5 (SELEX), 24 °C; plate assay washes with 1% BSA, 0.05% Tween …; aptamers folded 95 °C 5 min then cooled.
Data set [6] concerns His-CPA (C-terminus of RNA polymerase subunit PA) (Influenza A). As to the kind of experiment: fluorescence plate binding assay. The following applies: all A are 7-phenylbutyl-7-deaza-dA (A*); 25 mM HEPES, 5 mM MgCl2, 300 mM KCl, pH 7.4 (BLI) or 7.5 (SELEX), 24 °C; plate assay washes with 1% BSA, 0.05% Tween …; aptamers folded 95 °C 5 min then cooled.
For data set [7], the target named is His-Hsp70 (Heat Shock Protein 70) (UniProt P0DMV8). The data set can be described thus: fluorescence plate binding assay. The following applies: 25 mM HEPES, 5 mM MgCl2, 300 mM KCl, pH 7.4 (BLI) or 7.5 (SELEX), 24 °C, plate assay washes with 1% BSA.
For data set [8], the system named is His-NPA (N-terminus of RNA polymerase subunit PA) (Influenza A). The data set can be described thus: fluorescence plate binding assay. The following applies: all A are 7-phenylbutyl-7-deaza-dA (A*); 25 mM HEPES, 5 mM MgCl2, 300 mM KCl, pH 7.4 (BLI) or 7.5 (SELEX), 24 °C; plate assay washes with 1% BSA, 0.05% Tween …; aptamers folded 95 °C 5 min then cooled.
The subject of data set [9] is His-SUMO. As to the kind of experiment: fluorescence plate binding assay. The following applies: all A are 7-phenylbutyl-7-deaza-dA (A*); 25 mM HEPES, 5 mM MgCl2, 300 mM KCl, pH 7.4 (BLI) or 7.5 (SELEX), 24 °C; plate assay washes with 1% BSA, 0.05% Tween …; aptamers folded 95 °C 5 min then cooled.
Setting [10] is: all A are 7-phenylbutyl-7-deaza-dA (A*), 0.05% Tween …, aptamers folded 95 °C 5 min then cooled.
The mark [11] stands for this setting: none (natural dA), 0.05% Tween 20, aptamers folded 95 °C 5 min then ….
Where [12] appears, read: all A after nt 19 are 7-phenylbutyl-7-deaza-dA (A*), 0.05% Tween 20, aptamers folded 95 °C 5 min then ….
The mark [13] stands for this setting: A after nt 19 are 7-phenylbutyl-7-deaza-dA (A*), 0.05% Tween 20, aptamers folded 95 °C 5 min then ….

In the case of “AGACCTCATAGTCCTTCTAATTATACTCCAATGGCATAGCTGGCAC [HSc-9.1]”, the dissociation constant (Kd) is 1240 nM in data set [1]; 29.1 nM in data set [2] (setting [10]); 1550 nM in [3]; 1320 nM in data set [4]; 28.5 nM in data set [5]; 1000 nM in data set [6]. Also, the dissociation constant (Kd) in [7] (setting [10]) worked out at 14.8 nM; in data set [8], 1250 nM; in data set [9], 1110 nM.

“GCAGCAGAGATAGACGCTAAGACCTCATAGTCCTTCTAATTATACTCCAATGGCATAGCTGGCAC [HSNat-9]”: the values for the Kd in data set [2] (setting [11]) and in data set [7] (setting [11]) were 4650 nM and above 10000 nM, respectively.

Regarding “GCAGCAGAGATAGACGCTAAGACCTCATAGTCCTTCTAATTATACTCCAATGGCATAGCTGGCAC [HSc-9]”, the equilibrium dissociation constant (Kd) in [2] (setting [12]) amounted to 36 nM; in data set [7] (setting [12]), 29.1 nM.

Take “GCAGCAGAGATAGACGCTACCCCTTAATAAAAACATACGGTCCATTCCCGTCGTACGATTGATTG [Scr2]”: the equilibrium dissociation constant (Kd) in [2] (setting [13]) was 620 nM; in data set [7] (setting [13]), 687 nM.

For “GCAGCAGAGATAGACGCTACCCCTTAATAAAAACATACGGTCCATTCCCGTCGTACGATTGATTG [Scr3]”, the equilibrium dissociation constant (Kd) was determined as 700 nM in data set [2] (setting [13]) and 775 nM in data set [7] (setting [13]).

Turning to “GCAGCAGAGATAGACGCTATCGATGACTATAATTCCCATCTATCATCCAATGGCATAGCTGGCAC [Scr1]”, the values for the Kd in data set [2] (setting [13]) and in data set [7] (setting [13]) were 560 nM and 536 nM, respectively.

Regarding “GCAGCAGAGATAGACGCTATTCTCTAGACCTTCTAATTTACATACTCCAATGGCATAGCTGGCAC [HSNat-2]”, the equilibrium dissociation constant (Kd) in data set [2] (setting [11]) was above 5000 nM; in data set [7] (setting [11]) it was above 10000 nM.

Consider “GCAGCAGAGATAGACGCTATTCTCTAGACCTTCTAATTTACATACTCCAATGGCATAGCTGGCAC [HSc-2]”, for which the Kd in data set [2] (all A after nt 19 plus those marked A* are 7-phenylbutyl-7-deaza-dA, except none in 5' primer region (nt 1-19), printed A26 and later marked A*, 0.05% Tween 20, aptamers folded 95 °C 5 min then …) amounted to 66 nM; in data set [7] (error printed as 6 in Table 6, all A after nt 19 plus those marked A* are 7-phenylbutyl-7-deaza-dA, except none in 5' primer region (nt 1-19), printed A26 and later marked A*, 0.05% Tween 20, aptamers folded 95 °C 5 min then …), 245 nM.

(Values after article PMC10079658.)
